Read-outs that look alike come from different tables or passages of the source.
Columns and labels:
Experiment in all cases: AUC
[1] = target: Bacillus anthracis inosine-5'-monophosphate dehydrogenase (Bacillus thuringiensis serovar monterrey BGSC 4AJ1 (sequence 100% identical to B. anthracis IMPDH))
[2] = target: Bacillus anthracis inosine-5'-monophosphate dehydrogenase (Bacillus thuringiensis serovar monterrey BGSC 4AJ1 (sequence 100% identical to B. anthracis IMPDH)); remark: listed apart in the source
[3] = target: Klebsiella pneumoniae inosine-5'-monophosphate dehydrogenase (Klebsiella pneumoniae strain 52145)
[4] = target: Klebsiella pneumoniae inosine-5'-monophosphate dehydrogenase (Klebsiella pneumoniae strain 52145); remark: listed apart in the source

Row | stoichiometry N [3] | stoichiometry N [4] | Substance | stoichiometry N [1] | stoichiometry N [2]
1 | – | – | Bacillus anthracis inosine-5'-monophosphate dehydrogenase (from UniProt A0A0K0Q667 1-487) (enzyme) | 4 | 8
2 | 4 | 8 | Klebsiella pneumoniae inosine-5'-monophosphate dehydrogenase (enzyme) | – | –
